Reference: IntAct's records for PubMed 31515488

B1: X-linked retinitis pigmentosa GTPase regulator (Homo sapiens), Q92834 (parent)
chain: MREPEELMPDSGAVFTFGKSKFAENNPGKFWFKNDVPVHLSCGDEHSAVVTGNNKLYMFGSNNWGQLGLGSKSAISKPTCVKALKPEKVKLAACGRNHTLVSTEGGNVYATGGNNEGQLGLGDTEERNTFHVISFFTSEHKIKQLSAGSNTSAALTEDGRLFMWGDNSEGQIGLKNVSNVCVPQQVTIGKPVSWISCGYYHSAFVTTDGELYVFGEPENGKLGLPNQLLGNHRTPQLVSEIPEKVIQVACGGEHTVVLTENAVYTFGLGQFGQLGLGTFLFETSEPKVIENIRDQTISYISCGENHTALITDIGLMYTFGDGRHGKLGLGLENFTNHFIPTLCSNFLRFIVKLVACGGCHMVVFAAPHRGVAKEIEFDEINDTCLSVATFLPYSSLTSGNVLQRTLSARMRRRERERSPDSFSMRRTLPPIEGTLGLSACFLPNSVFPRCSERNLQESVLSEQDLMQPEEPDYLLDEMTKEAEIDNSSTVESLGETTDILNMTHIMSLNSNEKSLKLSPVQKQKKQQTIGELTQDTALTENDDSDEYEEMSEMKEGKACKQHVSQGIFMTQPATTIEAFSDEEVGNDTGQVGPQADTDGEGLQKEVYRHENNNGVDQLDAKEIEKESDGGHSQKESEAEEIDSEKETKLAEIAGMKDLREREKSTKKMSPFFGNLPDRGMNTESEENKDFVKKRESCKQDVIFDSERESVEKPDSYMEGASESQQGIADGFQQPEAIEFSSGEKEDDEVETDQNIRYGRKLIEQGNEKETKPIISKSMAKYDFKCDRLSEIPEEKEGAEDSKGNGIEEQEVEANEENVKVHGGRKEKTEILSDDLTDKAEDHEFSKTEELKLEDVDEEINAENVESKKKTVGDDESVPTGYHSKTEGAERTNDDSSAETIEKKEKANLEERAICEYNENPKGYMLDDADSSSLEILENSETTPSKDMKKTKKIFLFKRVPSINQKIVKNNNEPLPEIKSIGDQIILKSDNKDADQNHMSQNHQNIPPTNTERRSKSCTIL
partner: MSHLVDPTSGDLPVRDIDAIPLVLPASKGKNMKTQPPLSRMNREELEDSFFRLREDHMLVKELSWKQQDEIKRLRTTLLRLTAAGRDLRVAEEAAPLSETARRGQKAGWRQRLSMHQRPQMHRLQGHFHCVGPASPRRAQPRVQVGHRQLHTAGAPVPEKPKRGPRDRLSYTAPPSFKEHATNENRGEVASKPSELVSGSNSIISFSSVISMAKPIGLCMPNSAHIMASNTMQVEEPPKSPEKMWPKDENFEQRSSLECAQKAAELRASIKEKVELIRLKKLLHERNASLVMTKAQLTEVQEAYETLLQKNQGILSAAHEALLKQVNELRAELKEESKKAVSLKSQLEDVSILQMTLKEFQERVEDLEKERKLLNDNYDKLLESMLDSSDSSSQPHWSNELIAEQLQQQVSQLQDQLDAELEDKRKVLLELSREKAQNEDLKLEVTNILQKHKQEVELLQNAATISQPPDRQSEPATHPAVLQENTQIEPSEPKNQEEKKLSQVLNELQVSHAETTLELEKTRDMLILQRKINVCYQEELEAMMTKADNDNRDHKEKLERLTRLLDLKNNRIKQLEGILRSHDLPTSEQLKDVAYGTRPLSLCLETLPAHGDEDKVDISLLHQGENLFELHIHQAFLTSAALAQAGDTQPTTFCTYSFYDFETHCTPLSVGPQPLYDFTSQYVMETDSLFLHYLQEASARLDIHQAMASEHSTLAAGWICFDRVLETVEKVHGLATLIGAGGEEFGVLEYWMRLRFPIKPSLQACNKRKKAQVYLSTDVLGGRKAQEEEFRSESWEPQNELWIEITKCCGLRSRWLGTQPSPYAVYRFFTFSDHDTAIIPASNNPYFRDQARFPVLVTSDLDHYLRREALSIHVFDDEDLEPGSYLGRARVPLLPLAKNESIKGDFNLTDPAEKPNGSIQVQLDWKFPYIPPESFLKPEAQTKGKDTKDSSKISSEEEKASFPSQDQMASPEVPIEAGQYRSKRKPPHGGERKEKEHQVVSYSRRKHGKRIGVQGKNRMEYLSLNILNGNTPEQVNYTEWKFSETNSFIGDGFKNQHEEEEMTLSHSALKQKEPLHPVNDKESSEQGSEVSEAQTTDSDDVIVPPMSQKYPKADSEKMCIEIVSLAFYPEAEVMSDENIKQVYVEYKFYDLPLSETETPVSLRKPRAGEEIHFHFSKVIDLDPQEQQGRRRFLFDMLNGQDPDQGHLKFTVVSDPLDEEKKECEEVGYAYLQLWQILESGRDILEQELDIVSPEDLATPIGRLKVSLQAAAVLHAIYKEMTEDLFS
B2: Leucine-rich repeat and calponin homology domain-containing protein 1 (Homo sapiens), Q9Y2L9 (parent)
chain: MATPGSEPQPFVPALSVATLHPLHHPHHHHHHHQHHGGTGAPGGAGGGGGGSGGFNLPLNRGLERALEEAANSGGLNLSARKLKEFPRTAAPGHDLSDTVQADLSKNRLVEVPMELCHFVSLEILNLYHNCIRVIPEAIVNLQMLTYLNLSRNQLSALPACLCGLPLKVLIASNNKLGSLPEEIGQLKQLMELDVSCNEITALPQQIGQLKSLRELNVRRNYLKVLPQELVDLSLVKFDFSCNKVLVIPICFREMKQLQVLLLENNPLQSPPAQICTKGKVHIFKYLSIQACQIKTADSLYLHTMERPHLHQHVEDGKKDSDSGVGSDNGDKRLSATEPSDEDTVSLNVPMSNIMEEEQIIKEDSCHRLSPVKGEFHQEFQPEPSLLGDSTNSGEERDQFTDRADGLHSEFMNYKARAEDCEELLRIEEDVHWQTEGIISSSKDQDMDIAMIEQLREAVDLLQDPNGLSTDITERSVLNLYPMGSAEALELQDSALNGQIQLETSPVCEVQSDLTLQSNGSQYSPNEIRENSPAVSPTTNSTAPFGLKPRSVFLRPQRNLESIDPQFTIRRKMEQMREEKELVEQLRESIEMRLKVSLHEDLGAALMDGVVLCHLVNHIRPRSVASIHVPSPAVPKLSMAKCRRNVENFLEACRKLGVPEADLCSPCDILQLDFRHIRKTVDTLLALGEKAPPPTSALRSRDLIGFCLVHILFIVLVYITYHWNALSA
B3: G1/S-specific cyclin-D3 (Homo sapiens), P30281 (parent)
chain: MELLCCEGTRHAPRAGPDPRLLGDQRVLQSLLRLEERYVPRASYFQCVQREIKPHMRKMLAYWMLEVCEEQRCEEEVFPLAMNYLDRYLSCVPTRKAQLQLLGAVCMLLASKLRETTPLTIEKLCIYTDHAVSPRQLRDWEVLVLGKLKWDLAAVIAHDFLAFILHRLSLPRDRQALVKKHAQTFLALCATDYTFAMYPPSMIATGSIGAAVQGLGACSMSGDELTELLAGITGTEVDCLRACQEQIEAALRESLREASQTSSSPAPKAPRGSSSQGPSQTSTPTDVTAIHL
partner: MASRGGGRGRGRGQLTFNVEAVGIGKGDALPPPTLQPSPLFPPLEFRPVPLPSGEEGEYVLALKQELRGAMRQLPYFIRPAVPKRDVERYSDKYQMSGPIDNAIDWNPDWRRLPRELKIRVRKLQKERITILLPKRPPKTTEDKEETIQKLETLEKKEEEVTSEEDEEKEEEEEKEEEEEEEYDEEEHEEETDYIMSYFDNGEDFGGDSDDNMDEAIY
B4: Notch homolog 2 N-terminal-like protein A (Homo sapiens), Q7Z3S9 (parent)
chain: MCVTYHNGTGYCKCPEGFLGEYCQHRDPCEKNRCQNGGTCVAQAMLGKATCRCASGFTGEDCQYSTSHPCFVSRPCLNGGTCHMLSRDTYECTCQVGFTGKECQWTDACLSHPCANGSTCTTVANQFSCKCLTGFTGQKCETDVNECDIPGHCQHGGTCLNLPGSYQCQCLQGFTGQYCDSLYVPCAPSPCVNGGTCRQTGDFTFECNCLPETVRRGTELWERDREVWNGKEHDEN
partner: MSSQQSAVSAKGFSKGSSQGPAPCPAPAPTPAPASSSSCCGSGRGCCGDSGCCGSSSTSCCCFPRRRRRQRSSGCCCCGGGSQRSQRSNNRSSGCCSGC
B5: KAT8 regulatory NSL complex subunit 1 (Homo sapiens), Q7Z3B3 (parent)
chain: MAAMAPALTDAAAEAHHIRFKLAPPSSTLSPGSAENNGNANILIAANGTKRKAIAAEDPSLDFRNNPTKEDLGKLQPLVASYLCSDVTSVPSKESLKLQGVFSKQTVLKSHPLLSQSYELRAELLGRQPVLEFSLENLRTMNTSGQTALPQAPVNGLAKKLTKSSTHSDHDNSTSLNGGKRALTSSALHGGEMGGSESGDLKGGMTNCTLPHRSLDVEHTTLYSNNSTANKSSVNSMEQPALQGSSRLSPGTDSSSNLGGVKLEGKKSPLSSILFSALDSDTRITALLRRQADIESRARRLQKRLQVVQAKQVERHIQHQLGGFLEKTLSKLPNLESLRPRSQLMLTRKAEAALRKAASETTTSEGLSNFLKSNSISEELERFTASGIANLRCSEQAFDSDVTDSSSGGESDIEEEELTRADPEQRHVPLRRRSEWKWAADRAAIVSRWNWLQAHVSDLEYRIRQQTDIYKQIRANKGLIVLGEVPPPEHTTDLFLPLSSEVKTDHGTDKLIESVSQPLENHGAPIIGHISESLSTKSCGALRPVNGVINTLQPVLADHIPGDSSDAEEQLHKKQRLNLVSSSSDGTCVAARTRPVLSCKKRRLVRPNSIVPLSKKVHRNSTIRPGCDVNPSCALCGSGSINTMPPEIHYEAPLLERLSQLDSCVHPVLAFPDDVPTSLHFQSMLKSQWQNKPFDKIKPPKKLSLKHRAPMPGSLPDSARKDRHKLVSSFLTTAKLSHHQTRPDRTHRQHLDDVGAVPMVERVTAPKAERLLNPPPPVHDPNHSKMRLRDHSSERSEVLKHHTDMSSSSYLAATHHPPHSPLVRQLSTSSDSPAPASSSSQVTASTSQQPVRRRRGESSFDINNIVIPMSVAATTRVEKLQYKEILTPSWREVDLQSLKGSPDEENEEIEDLSDAAFAALHAKCEEMERARWLWTTSVPPQRRGSRSYRSSDGRTTPQLGSANPSTPQPASPDVSSSHSLSEYSHGQSPRSPISPELHSAPLTPVARDTPRHLASEDTRCSTPELGLDEQSVQPWERRTFPLAHSPQAECEDQLDAQERAARCTRRTSGSKTGRETEAAPTSPPIVPLKSRHLVAAATAQRPTHR

Variants of: B1
Conditions: with rpgr1_human RPGRIP1, Q96KN7

Row | Variant | effect of a mutation on the interaction
1 | R425K | with no effect
2 | Q184H | with no effect

Variants of: B2
Conditions: with dock8_human DOCK8, Q8NF50
dock8_human DOCK8, Q8NF50, sequence (Q8NF50 whole entry): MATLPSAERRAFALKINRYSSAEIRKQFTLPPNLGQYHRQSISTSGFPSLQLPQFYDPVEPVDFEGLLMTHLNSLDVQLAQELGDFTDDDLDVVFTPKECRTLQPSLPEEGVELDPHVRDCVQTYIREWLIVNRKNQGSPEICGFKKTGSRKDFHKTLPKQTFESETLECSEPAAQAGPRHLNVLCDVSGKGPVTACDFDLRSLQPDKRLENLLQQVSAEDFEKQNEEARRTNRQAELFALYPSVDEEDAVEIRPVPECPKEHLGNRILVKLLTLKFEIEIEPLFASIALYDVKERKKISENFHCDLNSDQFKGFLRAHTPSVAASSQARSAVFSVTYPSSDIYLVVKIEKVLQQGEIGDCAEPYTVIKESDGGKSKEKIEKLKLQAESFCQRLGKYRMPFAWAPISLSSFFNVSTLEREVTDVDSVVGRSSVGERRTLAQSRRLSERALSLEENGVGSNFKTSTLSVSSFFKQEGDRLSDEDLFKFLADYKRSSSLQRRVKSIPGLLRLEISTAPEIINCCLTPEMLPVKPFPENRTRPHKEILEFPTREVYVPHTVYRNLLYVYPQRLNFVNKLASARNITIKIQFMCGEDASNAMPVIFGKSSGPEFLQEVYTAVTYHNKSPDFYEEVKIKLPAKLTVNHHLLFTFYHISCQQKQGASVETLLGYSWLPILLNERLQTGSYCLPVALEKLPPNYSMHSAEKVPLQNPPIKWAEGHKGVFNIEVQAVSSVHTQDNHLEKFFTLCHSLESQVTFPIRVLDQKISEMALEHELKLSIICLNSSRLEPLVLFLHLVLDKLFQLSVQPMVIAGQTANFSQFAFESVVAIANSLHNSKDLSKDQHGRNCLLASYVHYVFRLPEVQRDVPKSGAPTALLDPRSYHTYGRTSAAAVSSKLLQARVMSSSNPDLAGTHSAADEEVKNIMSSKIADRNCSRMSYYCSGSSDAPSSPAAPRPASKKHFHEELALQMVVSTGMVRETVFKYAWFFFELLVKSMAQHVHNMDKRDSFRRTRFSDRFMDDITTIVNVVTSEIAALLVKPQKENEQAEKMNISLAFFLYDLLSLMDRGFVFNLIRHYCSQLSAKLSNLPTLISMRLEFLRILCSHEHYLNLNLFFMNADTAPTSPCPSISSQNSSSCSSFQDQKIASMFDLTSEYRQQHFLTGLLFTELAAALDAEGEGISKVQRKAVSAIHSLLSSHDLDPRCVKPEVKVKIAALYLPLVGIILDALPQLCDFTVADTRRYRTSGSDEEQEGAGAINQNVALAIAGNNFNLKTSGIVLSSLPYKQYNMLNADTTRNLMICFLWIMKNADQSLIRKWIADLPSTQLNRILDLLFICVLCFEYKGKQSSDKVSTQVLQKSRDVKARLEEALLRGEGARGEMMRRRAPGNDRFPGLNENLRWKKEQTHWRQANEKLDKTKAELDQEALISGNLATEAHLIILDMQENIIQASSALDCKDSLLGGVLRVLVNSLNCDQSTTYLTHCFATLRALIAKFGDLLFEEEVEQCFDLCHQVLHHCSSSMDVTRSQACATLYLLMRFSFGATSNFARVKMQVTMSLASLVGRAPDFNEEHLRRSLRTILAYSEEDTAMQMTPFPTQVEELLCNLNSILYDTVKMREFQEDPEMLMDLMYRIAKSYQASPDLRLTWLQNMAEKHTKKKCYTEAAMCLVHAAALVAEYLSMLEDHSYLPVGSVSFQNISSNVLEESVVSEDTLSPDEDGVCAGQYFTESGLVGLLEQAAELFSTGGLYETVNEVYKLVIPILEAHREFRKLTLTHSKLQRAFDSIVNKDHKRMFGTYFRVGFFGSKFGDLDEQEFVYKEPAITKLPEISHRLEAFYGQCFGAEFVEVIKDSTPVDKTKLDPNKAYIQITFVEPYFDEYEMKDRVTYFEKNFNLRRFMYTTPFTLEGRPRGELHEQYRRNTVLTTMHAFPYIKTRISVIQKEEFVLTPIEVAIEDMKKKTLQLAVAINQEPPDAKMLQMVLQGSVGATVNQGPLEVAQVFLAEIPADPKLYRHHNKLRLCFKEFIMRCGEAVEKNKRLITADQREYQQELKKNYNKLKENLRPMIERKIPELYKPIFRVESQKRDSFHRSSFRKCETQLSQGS

Row | Variant | effect of a mutation on the interaction
3 | A486S | with no effect

Variants of: B3
Conditions: with rpc7l_human POLR3GL

Row | Variant | effect of a mutation on the interaction
4 | E253D | with no effect

Variants of: B4
Conditions: with crct1_human CRCT1, Q9UGL9

Row | Variant | effect of a mutation on the interaction
5 | A115T | with no effect
6 | R74Q | with no effect

Variants of: B5
Conditions: with cdr2_human CDR2, Q01850
cdr2_human CDR2, Q01850, sequence (Q01850 whole entry): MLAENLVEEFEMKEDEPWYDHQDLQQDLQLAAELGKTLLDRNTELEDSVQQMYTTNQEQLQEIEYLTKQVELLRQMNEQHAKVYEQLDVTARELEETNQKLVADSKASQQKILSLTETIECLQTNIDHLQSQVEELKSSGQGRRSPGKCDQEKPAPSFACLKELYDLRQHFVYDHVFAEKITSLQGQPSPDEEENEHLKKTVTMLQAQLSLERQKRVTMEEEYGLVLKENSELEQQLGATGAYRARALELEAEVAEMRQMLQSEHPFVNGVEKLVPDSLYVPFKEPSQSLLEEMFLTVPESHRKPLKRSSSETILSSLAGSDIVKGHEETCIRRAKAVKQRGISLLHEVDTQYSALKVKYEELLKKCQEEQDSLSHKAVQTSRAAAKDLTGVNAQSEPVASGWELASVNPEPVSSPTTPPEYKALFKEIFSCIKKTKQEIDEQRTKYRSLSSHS

Row | Variant | effect of a mutation on the interaction
7 | K104T | with no effect
8 | N225D | with no effect

Variants of: B5
Conditions: with traf2_human TRAF2, Q12933
traf2_human TRAF2, Q12933, sequence (Q12933 whole entry): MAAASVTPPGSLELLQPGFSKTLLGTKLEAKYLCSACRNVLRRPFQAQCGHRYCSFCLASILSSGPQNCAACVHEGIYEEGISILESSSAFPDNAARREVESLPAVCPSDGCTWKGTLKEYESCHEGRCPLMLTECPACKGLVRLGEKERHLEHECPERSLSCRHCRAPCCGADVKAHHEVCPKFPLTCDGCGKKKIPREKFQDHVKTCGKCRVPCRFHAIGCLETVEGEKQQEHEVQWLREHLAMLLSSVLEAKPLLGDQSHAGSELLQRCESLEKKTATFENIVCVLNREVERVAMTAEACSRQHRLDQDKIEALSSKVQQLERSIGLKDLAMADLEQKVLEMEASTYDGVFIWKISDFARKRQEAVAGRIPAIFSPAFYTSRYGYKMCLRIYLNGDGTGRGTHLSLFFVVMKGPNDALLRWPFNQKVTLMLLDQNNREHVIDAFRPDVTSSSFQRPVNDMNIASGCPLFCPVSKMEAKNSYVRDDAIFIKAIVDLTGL

Row | Variant | effect of a mutation on the interaction
9 | K104T | with no effect
10 | N225D | with no effect

Variants of: B5
Conditions: with KRT15, P19012
KRT15, P19012, sequence (P19012 whole entry): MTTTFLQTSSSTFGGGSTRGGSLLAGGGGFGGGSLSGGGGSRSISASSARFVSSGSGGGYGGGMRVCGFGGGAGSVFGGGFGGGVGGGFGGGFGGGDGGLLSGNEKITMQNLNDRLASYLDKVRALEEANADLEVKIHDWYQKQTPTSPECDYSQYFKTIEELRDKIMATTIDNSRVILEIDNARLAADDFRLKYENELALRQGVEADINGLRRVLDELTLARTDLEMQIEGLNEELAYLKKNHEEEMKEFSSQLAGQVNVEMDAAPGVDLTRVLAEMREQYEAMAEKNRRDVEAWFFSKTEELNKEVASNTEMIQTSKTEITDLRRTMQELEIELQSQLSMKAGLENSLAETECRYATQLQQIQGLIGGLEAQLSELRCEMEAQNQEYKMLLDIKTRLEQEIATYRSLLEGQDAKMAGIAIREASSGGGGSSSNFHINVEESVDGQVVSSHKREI

Row | Variant | effect of a mutation on the interaction
11 | K104T | with no effect
12 | N225D | with no effect
